One molecule from PMC7290806, “VviWRKY40, a WRKY Transcription Factor, Regulates Glycosylated Monoterpenoid Production by VviGT14 in Grape Berry” can be followed below.

The target in the data set is T1, VviWRKY40 (Vitis vinifera 'Muscat blanc à Petit …, UniProt E7BTN0 1-317).
T1 sequence: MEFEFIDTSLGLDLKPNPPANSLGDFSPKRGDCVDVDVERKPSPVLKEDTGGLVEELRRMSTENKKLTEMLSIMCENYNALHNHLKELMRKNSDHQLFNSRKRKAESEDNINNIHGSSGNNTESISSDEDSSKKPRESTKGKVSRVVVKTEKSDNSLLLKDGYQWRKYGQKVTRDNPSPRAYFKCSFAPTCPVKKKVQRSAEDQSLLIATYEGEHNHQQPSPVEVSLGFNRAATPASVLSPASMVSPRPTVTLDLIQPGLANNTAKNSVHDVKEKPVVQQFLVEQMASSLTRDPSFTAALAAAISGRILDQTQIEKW
In words: EMSA; shift without cold probe and with up to 50x cold probe; 50x and 200x unlabeled self-competitor tested; EMSA: LightShift Chemiluminescent kit, 50 ng protein, 15 ng probe, room temperature, 25 min (buffer and pH not stated); pull-down: poly(dI-dC), DTT, EDTA, EGTA, 4 °C, 1 h. Conditions: protein: recombinant; tags: 6xHis, pET32a fusion (19 kDa tag, 55 kDa in total); label: 3' biotin (Methods also says digoxigenin-labeled); blunt (duplex implied, only one strand printed). On the technique in general: Mobility shift assays separate free from complexed probe on a gel.

B1: VviGT14 promoter 41-bp w-box fragment (dsDNA)
DNA 1: AGAAGTGAGAGGGTAAGTTGACCATGCACTCTCATCTAGAT
DNA 2: ATCTAGATGAGAGTGCATGGTCAACTTACCCTCTCACTTCT
On to B1, for which the binding result is “binds”.
